Consider two molecules from publication PMC4763987, “Calcium-induced tetramerization and zinc chelation shield human calprotectin from degradation by host and bacterial extracellular proteases† †Electronic supplementary information (ESI) available: Supplementary Tables S1–S6, supplementary Fig. S1–S22. Data for protease activity controls are included …” (Chemical Science, 2015).

The target in this assay is T1, S100A9(C3S) subunit of CP-Ser (human, UniProt P06702 1-114, C3S).
T1 construct: S100A9 (calgranulin B, MRP-14), human, 114 amino acids; also called β subunit
T1 sequence (looked up): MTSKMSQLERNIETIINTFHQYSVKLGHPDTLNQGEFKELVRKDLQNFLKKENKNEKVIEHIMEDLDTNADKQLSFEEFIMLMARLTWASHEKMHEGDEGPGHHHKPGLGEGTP
The assay is described as follows: co-purification; subunits overexpressed and purified as described previously (ref. 19); the protocol affords the S100A8/S100A9 heterodimer; subunits judged by gel electrophoresis and mass spectrometry.

B1: S100A8(C42S)(I60E) subunit (natural protein, human, UniProt P05109 1-93, looked up)
chain: MLTELEKALNSIIDVYHKYSLIKGNFHAVYRDDLKKLLETESPQYIRKKGADVWFKELDENTDGAVNFQEFLILVIKMGVAAHKKSHEESHKE
notes: S100A8, human, 93 amino acids; also called S100A8 subunit of I60E
Turning to B1, the binding result is reported as “binds”.

B2: S100A8(C42S)(I60K) subunit (natural protein, human, UniProt P05109 1-93, looked up)
chain: MLTELEKALNSIIDVYHKYSLIKGNFHAVYRDDLKKLLETESPQYIRKKGADVWFKELDKNTDGAVNFQEFLILVIKMGVAAHKKSHEESHKE
notes: S100A8, human, 93 amino acids; also called S100A8 subunit of I60K
B2: the binding result is on record as “binds”.
